Assay results as given in patent US20240209100A1 (DIAGONAL THERAPEUTICS, published 2024).
Read-outs that look alike come from different tables or passages of the source.

B1: DGL160 (bispecific antibody)
heavy 1: QVQLVESGGGLVQAGGSLRLSCAASGRTFSSYTMGWFRQAPGKEREFVAAISWSAGRTYYADSVKGRFTISRDNAKNTVYLQMNSLKPEDTAVYFCAAEEAPDWAPIDCSGYGCLSLYDYWGQGTQVTVSSDKGPSVFPLAPEPKSSEVQLVESGGGLVQAGGSLRLSCAASGRTFRNYHMGWFRQAPGQEREFVAAISSSGGKTSYPDSVNGRFTISRDNAKNTVYLQMNNLKVEDTAVYYCAADPRYWVAAGGSEPENVEVWGQGTLVTVSSDKTHTCPPCPAPEAAGGPSVFLFPPKPKDTLMISRTPEVTCVVVDVSHEDPEVKFNWYVDGVEVHNAKTKPREEQYNSTYRVVSVLTVLHQDWLNGKEYKCKVSNKALPAPIEKTISKAKGQPREPQVCTLPPSRDELTKNQVSLSCAVKGFYPSDIAVEWESNGQPENNYKTTPPVLDSDGSFFLVSKLTVDKSRWQQGNVFSCSVMHEALHNHYTQKSLSLSPG
heavy 2: not shown
B2: DGL161 (bispecific antibody)
heavy 1: EVQLVESGGGLVQPGGSLRLSCAASGFFLDDYVLGWFRQAPGKPREGVSCISSRGRYLNYAETVKGRFTISRSNAKNTVYLQMNNLEPEDTAVYYCAAVRRVSEVCKLAEDDFASWGQGTQVTVSSDKGPSVFPLAPEPKSSQVQLVESGGGLVQAGDSLRLSCVASERTFSSYTMGWFRQAPGKEREFTAALSWWNGGISTAYADSVKGRFTISRDNAKNTVYLQMNSLKTEDTALYYCAAARDRMPRADEYDYWGQGTQVTVSSDKTHTCPPCPAPEAAGGPSVFLFPPKPKDTLMISRTPEVTCVVVDVSHEDPEVKFNWYVDGVEVHNAKTKPREEQYNSTYRVVSVLTVLHQDWLNGKEYKCKVSNKALPAPIEKTISKAKGQPREPQVCTLPPSRDELTKNQVSLSCAVKGFYPSDIAVEWESNGQPENNYKTTPPVLDSDGSFFLVSKLTVDKSRWQQGNVFSCSVMHEALHNHYTQKSLSLSPG
heavy 2: not shown
B3: DGL162 (bispecific antibody)
heavy 1: QVQLVESGGGLVQAGGSLRLSCAASGRTFSKHAMGWFRQAPGKEREFVAAIDWSGGSTYYADSVKGRFTISRDNAKNTVYLQMDSLKPEDTAVYYCAADSYTDYAQLWLPELESEYDYWGQGTQVTVSSDKGPSVFPLAPEPKSSQVQLQESGGGLVQAGGSLKLSCQASGLTFKRNTMGWFRQAPGKEREFVAHFLWTGGETDYADAVKGRFTISRDNAKNTVYLQMNSLKPEDTAVYFCAANYAGYRIDGYQYWGQGTQVTVSSDKTHTCPPCPAPEAAGGPSVFLFPPKPKDTLMISRTPEVTCVVVDVSHEDPEVKFNWYVDGVEVHNAKTKPREEQYNSTYRVVSVLTVLHQDWLNGKEYKCKVSNKALPAPIEKTISKAKGQPREPQVCTLPPSRDELTKNQVSLSCAVKGFYPSDIAVEWESNGQPENNYKTTPPVLDSDGSFFLVSKLTVDKSRWQQGNVFSCSVMHEALHNHYTQKSLSLSPG
heavy 2: not shown
B4: DGL163 (bispecific antibody)
heavy 1: QVQLVESGGGLVQAGGSLRLSCAASGRTFSSYNMGWFRQAPGKERESVAAISWSGGSSYYADSVKGRFTISRDNAKPTVYLQMNSLKPEDTAVYYCAADRDSEEWDGSSWFFKSDYWGQGTQVTVSSDKGPSVFPLAPEPKSSQVQLVESGGGLVQTGGPLRLSCAASGGTFSRYTMGWFRQAPGKEREYVAAISWRGSSIYYADAVKGRFTISRDSAKSTVYLQMNNLNSDDTAVYYCAADRTDLPRNAGEYGYWGQGTQVTVSSDKTHTCPPCPAPEAAGGPSVFLFPPKPKDTLMISRTPEVTCVVVDVSHEDPEVKFNWYVDGVEVHNAKTKPREEQYNSTYRVVSVLTVLHQDWLNGKEYKCKVSNKALPAPIEKTISKAKGQPREPQVCTLPPSRDELTKNQVSLSCAVKGFYPSDIAVEWESNGQPENNYKTTPPVLDSDGSFFLVSKLTVDKSRWQQGNVFSCSVMHEALHNHYTQKSLSLSPG
heavy 2: not shown
B5: DGL164 (bispecific antibody)
heavy 1: QVQLVESGGGLVQAGGSLRLSCAASGRTFSSYTMGWFRQAPGKEREFVAAISWSAGRTYYADSVKGRFTISRDNAKNTVYLQMNSLKPEDTAVYFCAAEEAPDWAPIDCSGYGCLSLYDYWGQGTQVTVSSDKGPSVFPLAPEPKSSQVQLVESGGGLVQAGGSLRLSCAASQTGFNMNRMGWYRQAPGKQRELVATITGGGSTTYADSVKGRFDISRGNVENNLYLQMNSLKPEDTAVYYCNALLFGRDYWGQGTQVTVSSDKTHTCPPCPAPEAAGGPSVFLFPPKPKDTLMISRTPEVTCVVVDVSHEDPEVKFNWYVDGVEVHNAKTKPREEQYNSTYRVVSVLTVLHQDWLNGKEYKCKVSNKALPAPIEKTISKAKGQPREPQVCTLPPSRDELTKNQVSLSCAVKGFYPSDIAVEWESNGQPENNYKTTPPVLDSDGSFFLVSKLTVDKSRWQQGNVFSCSVMHEALHNHYTQKSLSLSPG
heavy 2: not shown
B6: DGL165 (bispecific antibody)
heavy 1: QVQLVESGGGLVQAGGSLRLSCAASGRTFSSYTMGWFRQAPGKEREFVAAISWSAGRTYYADSVKGRFTISRDNAKNTVYLQMNSLKPEDTAVYFCAAEEAPDWAPIDCSGYGCLSLYDYWGQGTQVTVSSGGGSEVQLVESGGGLVQAGGSLRLSCAASGRTFRNYHMGWFRQAPGQEREFVAAISSSGGKTSYPDSVNGRFTISRDNAKNTVYLQMNNLKVEDTAVYYCAADPRYWVAAGGSEPENVEVWGQGTLVTVSSDKTHTCPPCPAPEAAGGPSVFLFPPKPKDTLMISRTPEVTCVVVDVSHEDPEVKFNWYVDGVEVHNAKTKPREEQYNSTYRVVSVLTVLHQDWLNGKEYKCKVSNKALPAPIEKTISKAKGQPREPQVCTLPPSRDELTKNQVSLSCAVKGFYPSDIAVEWESNGQPENNYKTTPPVLDSDGSFFLVSKLTVDKSRWQQGNVFSCSVMHEALHNHYTQKSLSLSPG
heavy 2: not shown
B7: DGL166 (bispecific antibody)
heavy 1: EVQLVESGGGLVQPGGSLRLSCAASGFFLDDYVLGWFRQAPGKPREGVSCISSRGRYLNYAETVKGRFTISRSNAKNTVYLQMNNLEPEDTAVYYCAAVRRVSEVCKLAEDDFASWGQGTQVTVSSGGGSQVQLVESGGGLVQAGDSLRLSCVASERTFSSYTMGWFRQAPGKEREFTAALSWWNGGISTAYADSVKGRFTISRDNAKNTVYLQMNSLKTEDTALYYCAAARDRMPRADEYDYWGQGTQVTVSSDKTHTCPPCPAPEAAGGPSVFLFPPKPKDTLMISRTPEVTCVVVDVSHEDPEVKFNWYVDGVEVHNAKTKPREEQYNSTYRVVSVLTVLHQDWLNGKEYKCKVSNKALPAPIEKTISKAKGQPREPQVCTLPPSRDELTKNQVSLSCAVKGFYPSDIAVEWESNGQPENNYKTTPPVLDSDGSFFLVSKLTVDKSRWQQGNVFSCSVMHEALHNHYTQKSLSLSPG
heavy 2: not shown
B8: DGL093 (bispecific antibody)
heavy 1: QVQLVESGGGLVQAGGSLRLSCAASGRTFSKHAMGWFRQAPGKEREFVAAIDWSGGSTYYADSVKGRFTISRDNAKNTVYLQMDSLKPEDTAVYYCAADSYTDYAQLWLPELESEYDYWGQGTQVTVSSDKTHTCPPCPAPEAAGGPSVFLFPPKPKDTLMISRTPEVTCVVVDVSHEDPEVKFNWYVDGVEVHNAKTKPREEQYNSTYRVVSVLTVLHQDWLNGKEYKCKVSNKALPAPIEKTISKAKGQPREPQVCTLPPSRDELTKNQVSLSCAVKGFYPSDIAVEWESNGQPENNYKTTPPVLDSDGSFFLVSKLTVDKSRWQQGNVFSCSVMHEALHNHYTQKSLSLSPG
heavy 2: not shown
B9: DGL222 (bispecific antibody)
heavy 1: QVQLVESGGGLVQAGGSLRLSCAASGRTFSKHAMGWFRQAPGKEREFVAAIDWSGGSTYYADSVKGRFTISRDNAKNTVYLQMDSLKPEDTAVYYCAADSYTDYAQLWLPELESEYDYWGQGTLVTVSSEKSYGPPCPPCPAPEAAGAPSVFLFPPKPKDTLMISRTPEVTCVVVDVSHEDPEVKFNWYVDGVEVHNAKTKPREEQYNSTYRVVSVLTVLHQDWLNGKEYKCKVSNKALPAPIEKTISKAKGQPREPQVCTLPPSRDELTKNQVSLSCAVKGFYPSDIAVEWESNGQPENNYKTTPPVLDSDGSFFLVSKLTVDKSRWQQGNVFSCSVMHEALHNHYTQKSLSLSPGWSHPQFEK
heavy 2: not shown

Key:
Experiment in all cases: cell-based or functional assay
[1] = molecular target: T1, IL-18 receptor (IL-18Rα/IL-18Rβ) overexpressed on HEK-Blue IL-18 cells (Homo sapiens (Human), UniProt Q13478 19-541; O95256 20-599)
T1 sequence 1: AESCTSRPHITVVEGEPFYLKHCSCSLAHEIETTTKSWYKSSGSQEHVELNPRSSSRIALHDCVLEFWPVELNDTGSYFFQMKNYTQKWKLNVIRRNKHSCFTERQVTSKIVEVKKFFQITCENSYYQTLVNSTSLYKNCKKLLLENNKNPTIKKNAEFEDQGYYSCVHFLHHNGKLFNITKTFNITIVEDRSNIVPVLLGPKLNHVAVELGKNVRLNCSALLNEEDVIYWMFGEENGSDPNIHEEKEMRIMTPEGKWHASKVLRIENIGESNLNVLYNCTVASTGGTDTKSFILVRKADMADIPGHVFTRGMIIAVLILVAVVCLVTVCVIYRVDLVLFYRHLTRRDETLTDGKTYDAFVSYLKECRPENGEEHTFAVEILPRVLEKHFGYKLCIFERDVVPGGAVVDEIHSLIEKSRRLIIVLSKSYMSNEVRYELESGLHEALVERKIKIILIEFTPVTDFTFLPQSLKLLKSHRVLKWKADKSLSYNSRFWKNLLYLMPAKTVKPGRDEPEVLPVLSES
T1 sequence 2: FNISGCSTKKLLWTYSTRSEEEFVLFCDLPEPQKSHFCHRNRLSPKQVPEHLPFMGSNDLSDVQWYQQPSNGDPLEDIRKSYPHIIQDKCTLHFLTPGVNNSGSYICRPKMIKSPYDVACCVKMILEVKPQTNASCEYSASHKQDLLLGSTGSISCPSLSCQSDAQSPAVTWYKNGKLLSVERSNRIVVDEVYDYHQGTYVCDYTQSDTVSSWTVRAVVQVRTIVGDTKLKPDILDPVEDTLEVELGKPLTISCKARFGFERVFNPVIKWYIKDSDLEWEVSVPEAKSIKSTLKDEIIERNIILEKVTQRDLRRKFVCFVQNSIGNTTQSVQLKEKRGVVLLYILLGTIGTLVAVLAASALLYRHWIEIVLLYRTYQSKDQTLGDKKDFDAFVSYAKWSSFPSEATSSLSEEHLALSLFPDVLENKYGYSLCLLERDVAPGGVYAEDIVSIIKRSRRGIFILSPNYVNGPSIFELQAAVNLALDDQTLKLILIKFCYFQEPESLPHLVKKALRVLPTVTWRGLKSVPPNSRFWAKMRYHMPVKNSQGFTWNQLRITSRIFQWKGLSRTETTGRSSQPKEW

[2] = molecular target: T1, IL-18 receptor (IL-18Rα/IL-18Rβ) …; remark: listed apart in the source
[3] = molecular target: T1, IL-18 receptor (IL-18Rα/IL-18Rβ) …; remark: listed apart in the source
[4] = molecular target: T1, IL-18 receptor (IL-18Rα/IL-18Rβ) …; remark: listed apart in the source

| Binder | HEK-Blue IL-18: Abs 405 [1] [Abs] | HEK-Blue IL-18: Fold over Background [1] [fold] | other results |
| --- | --- | --- | --- |
| B1 | 0.16 | 1.3 |  |
| B2 | 0.19 | 1.6 |  |
| B3 | 0.79 | 6.6 |  |
| B4 | 0.36 | 3 |  |
| B5 | 0.28 | 2.3 |  |
| B6 | 0.19 | 1.6 |  |
| B7 | 0.12 | 1 |  |
| B8 |  |  | HEK-Blue IL-18: Abs405 (Emax) [2]: 1.38 Abs; HEK-Blue IL-18: EC50 [2]: 8.3 pM; HEK-Blue IL-18: Fold over Background [3]: 9.2 fold; HEK-Blue IL-18: Abs 405 at 100 nM [4]: 0.9 Abs; HEK-Blue IL-18: Fold over Background [4]: 4.1 fold |
| B9 |  |  | HEK-Blue IL-18: Abs 405 at 100 nM [4]: 1.3 Abs; HEK-Blue IL-18: Fold over Background [4]: 5.5 fold |
